Assay results reported in patent US20150299255A1.

Target: lectin SNA1 from Sambucus nigra (Sambucus nigra) (UniProt Q41358)
Sequence (Q41358 29-289 limits assumed, chain 1 of 2): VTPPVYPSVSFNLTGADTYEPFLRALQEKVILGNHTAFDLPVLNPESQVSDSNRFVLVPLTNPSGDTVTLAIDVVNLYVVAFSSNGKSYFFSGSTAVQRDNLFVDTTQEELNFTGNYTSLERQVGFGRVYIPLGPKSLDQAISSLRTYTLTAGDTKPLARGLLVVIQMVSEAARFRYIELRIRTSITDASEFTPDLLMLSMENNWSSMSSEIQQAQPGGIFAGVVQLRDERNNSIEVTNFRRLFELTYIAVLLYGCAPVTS
Sequence (Q41358 309-570 limits assumed, chain 2 of 2): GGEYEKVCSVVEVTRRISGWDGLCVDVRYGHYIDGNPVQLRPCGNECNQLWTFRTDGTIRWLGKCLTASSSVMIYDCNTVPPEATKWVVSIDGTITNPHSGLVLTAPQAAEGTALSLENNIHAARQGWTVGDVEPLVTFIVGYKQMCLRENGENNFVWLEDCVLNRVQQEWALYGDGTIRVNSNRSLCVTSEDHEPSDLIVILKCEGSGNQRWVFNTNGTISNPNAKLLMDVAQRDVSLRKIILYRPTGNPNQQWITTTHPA

fetuin, sequence (P12763 19-359): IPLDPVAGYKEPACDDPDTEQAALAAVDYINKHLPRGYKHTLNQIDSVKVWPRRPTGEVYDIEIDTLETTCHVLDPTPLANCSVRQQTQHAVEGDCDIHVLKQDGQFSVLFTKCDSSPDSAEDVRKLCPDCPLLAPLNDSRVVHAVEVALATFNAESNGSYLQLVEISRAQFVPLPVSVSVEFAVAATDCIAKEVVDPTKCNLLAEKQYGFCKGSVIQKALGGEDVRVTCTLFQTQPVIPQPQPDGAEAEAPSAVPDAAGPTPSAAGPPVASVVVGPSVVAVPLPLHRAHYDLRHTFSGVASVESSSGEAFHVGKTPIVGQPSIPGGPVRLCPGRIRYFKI

## fetuin (from UniProt P12763 19-359)
  amount of fetuin giving essentially complete inhibition of SVH1C binding (pmoles per well): 500
  percent inhibition of SVH1C binding at 100 pmoles fetuin per well: 50%
